This is an account of results in patent US20040138134A1.

Assay [1] has as its target natriuretic peptide receptor on C3H10T1/2 cells. Description: cell-based or functional assay.
Assay [2] has the same target. Put plainly: cell-based or functional assay. The source holds these as a separate data set.

Like-named read-outs stand apart in the source and are kept apart here. Where no end group is shown, it is not given here.

B1: CNP variant SEQ ID NO:7 (peptide)
chain: CFGLKLARIGSMSGLGC
In turn, B1 yielded a % relative binding (cGMP, Biotrak EIA, peptide at 10^-6 M) in assay [1] of 49.1%.

B2: CNP 5-22 (17-mer, cyclic domain of CNP) (peptide)
chain: CFGLKLDRIGSMSGLGC
modifications: not fully specified (bridges); ends and bridges not checked
In the case of B2, the % relative binding (cGMP, Biotrak EIA, peptide at 10^-6 M) in assay [2] came to 100%; in assay [1], 127%.

B3: CNP variant SEQ ID NO:11 (peptide)
chain: CHFGLKLDRIGSMSC
In turn, B3 gave a % relative binding (cGMP, Biotrak EIA, peptide at 10^-6 M) in assay [1] of 25.9%.

B4: CNP variant SEQ ID NO:9 (peptide)
chain: CFGLKLDRAGSMSGLGC
As to B4, the % relative binding (cGMP, Biotrak EIA, peptide at 10^-6 M) in assay [1] was 11.5%.

B5: CNP variant SEQ ID NO:8 (peptide)
chain: CFGLKLDAIGSMSGLGC
As to B5, in assay [1], the % relative binding (cGMP, Biotrak EIA, peptide at 10^-6 M) is 18.4%.

B6: CNP variant SEQ ID NO:12 (peptide)
chain: CHFGLKLDRIGSMAC
For B6, the % relative binding (cGMP, Biotrak EIA, peptide at 10^-6 M) in assay [1] came out at 21.7%.
